For series [1] the following is noted: biotin; monomer at low pH and protein concentrations; cited from earlier work.
The nature of series [2]: Fluorescence polarization spectroscopy, biotin dissociation rate (koff). The settings on record: 37° C. The format is binding. The method, then:
(§1) FIG. 4. In vitro characterization of purified mSA mutants. a) Stability of mSA-RF and mSA-RWT in PBS was measured by circular dichroism spectroscopy with or without biotin. b) Fluorescence polarization spectroscopy was used to measure the dissociation rate of biotin-fluorescein. The dissociation rate, koff, was computed by fitting normalized fluorescence polarization data, or bound fraction f, to an exponentially decaying function, i.e. ƒ=e^−k^off^*t The measurements were taken at 37° C. c) The equilibrium affinity of binding Kd between mSA-RF and biotin-fluorescein was measured by FP. d) mSA-S25H and mSA-RF were analyzed by size exclusion chromatography to estimate their molecular weights in solution. Each mutant eluted with a retention time that was consistent with monomeric streptavidin. The molecular weight standards (arrows) correspond to 66.0, 29.0, 12.4 and 6.5 kDa from left to right.
The binding of biotinylated fluorescein (bf, AnaSpec) was measured using a microplate reader (SpectraMax® i3 Microplate reader from Molecular Devices) in flat bottom 96 well plates (Sterilin Ltd). To measure Kd, 100 nM bf was first mixed with titrating amounts of mSA in PBS containing 0.1 mg/ml bovine serum albumin (BSA). After overnight incubation at room temperature, the fluorescence polarization values were measured and fit to the quadratic binding equation (Hsu and Park, 2010, J Mol Graph Model, 29, 295-308). To measure the off rate (koff), 10 nM bf was first mixed with 50 nM mSA and incubated for 2 hr to form a biotin-mSA complex. To observe dissociation of bf, excess free biotin was added to a final concentration of 100 μM and recording of fluorescence was started immediately. The intensity of polarized fluorescence was measured at various time points and normalized with respect to the value at t=0 min. The intensities were fit to an exponentially decaying function e^−k^off^*t to compute koff. The dissociation half-life t1/2=0.693/koff.
We measured the biotin dissociation rate of various mSA mutants by fluorescence polarization spectroscopy. Table 2 presents the biotin dissociation rate (koff) of various mutants measured by fluorescence polarization spectroscopy. The S25R mutation lowered koff by nearly 21 fold compared to the original mSA and 3.3 fold compared to the S25H mutant (Table 2, FIG. 4b).
In general terms: Fluorescence polarisation rises when a labelled molecule tumbles more slowly, as on binding a larger partner.

Series [3] is described as follows: Fluorescence polarization spectroscopy, equilibrium affinity Kd. The settings on record: biotin-fluorescein, overnight incubation at room temperature, PBS 0.1 mg/ml BSA; read-out: equilibrium binding constant Kd. On the procedure:
as §1, with “Each mutant eluted with a retention time that was consistent with monomeric streptavidin. The molecular weight standards (arrows) correspond to 66.0, 29.0, 12.4 and 6.5 kDa from left to right.” left out
The binding of biotinylated fluorescein (bf, AnaSpec) was measured using a microplate reader (SpectraMax® i3 Microplate reader from Molecular Devices) in flat bottom 96 well plates (Sterilin Ltd). […] After overnight incubation at room temperature, the fluorescence polarization values were measured and fit to the quadratic binding equation (Hsu and Park, 2010, J Mol Graph Model, 29, 295-308). […] To observe dissociation of bf, excess free biotin was added to a final concentration of 100 μM and recording of fluorescence was started immediately. The intensity of polarized fluorescence was measured at various time points and normalized with respect to the value at t=0 min. […]

Series [4] in a line: Circular dichroism spectroscopy, thermal denaturation. It counts as physicochemical. The method, then:
as §1
FIG. 8. Circular dichroism spectra of mSA-RF after low pH treatment to release bound biotin is shown in a). mSA-RF was first buffer exchanged to 100 mM glycine (pH 2.3) and then back to PBS (pH 7.5) before CD analysis. The spectra obtained at temperatures 30, 40, 50, 60, 70, and 80° C. were overlaid. The spectra at lower temperatures were colored darker than the spectra at higher temperatures, i.e. the darkest for 30° C. and the lightest for 80° C. The CD values at 235 nm (from FIG. 8a) were used to compute the unfolded fraction shown in b).
FIG. 9. To evaluate the importance of the biotin additive, mSA was induced without biotin in the medium as shown in a). The culture medium was then pH adjusted to 7.5 and poured over Ni-NTA resin, which immediately turned brown (not shown). 1. Culture medium, 2. Flow through after Ni-NTA, 3. Wash, 4. Elution. The amount of purified mSA was approximately 20% of the expressed protein. (*) mSA. Thermal denaturation of mSA-RF purified with (circle) and without (square) biotin in the medium is shown in b).
Purified mSA was diluted to 15 μM in PBS and loaded in a quartz cuvette with 1.0 mm path length. […]
(In general: Circular dichroism is widely used to follow secondary structure.)

Series [5] deals with HEK293 cells displaying biotinylated AP-CFP. The series can be described thus: Fluorescent labeling of cell surface biotinylated receptor, confocal microscopy. It counts as cell-based. The source says: FIG. 5. Fluorescent labeling of HEK293 cells displaying biotinylated receptor. a) HEK293 cells displaying biotinylated AP-CFP were labeled with Alexa488-conjugated mSA-RWT and imaged by fluorescence microscopy. Fluorescence was filtered for (i) CFP and (ii) Alexa488 and the same field of vision was imaged multiple times at regular intervals to measure the stability of labeling. iii. DIC. mSA-RWT binds only CFP positive cells, indicating high specificity of interaction. b-c) HEK293 displaying unrelated protein fused to CFP b) or untransfected HEK293 c) were treated with purified BirA and then labeled with fluorescent mSA-RWT as in part (a) (i)-(iii) the same as before. d) The captured fluorescence images of mSA-RWT—Alexa488 labeled cells (in jpg format) were loaded into MatLab and the amount of CFP and Alexa488 fluorescence was quantified by summing over pixel values. The fluorescence intensity was normalized with respect to the value at t=0. e) Cells labeled with mSA-RF—EGFP were similarly imaged and analyzed to determine the time dependent loss of mSA labeling.
Adherent HEK293 cells were seeded in a 24 well plate (Becton Dickinson) and grown in DMEM supplemented with 10% FBS and antibiotic/antimycotic (Invitrogen). At 50% confluency, the cells were transfected with a plasmid containing pDisplay-AP-CFP-TM. After 2 days the wells were supplemented with 100 nM purified BirA, 5 mM ATP, and 0.3 mM biotin and the biotinylation reaction was carried out overnight. The following morning, the cells were detached from the wells using EDTA Solution (Versene from Life Technologies), washed with PBS containing 0.1% w/v BSA (PBSF), and fixed in 4% paraformaldehyde solution. Prior to microscopy, cells were labeled with 1 μM mSA-RWT—Alexa488 or 1 μM mSA-RF—EGFP in PBSF for 30 minutes. Excess protein was washed away and cells were switched to PBSF with 0.9 mM biotin. Each sample was mounted on slides and imaged using confocal microscopy. The same field of view was imaged every 10 min for 60 min to quantify fluorescence loss as a function of time. The captured images were analyzed with microscope software (ZEN from Zeiss, and MatLab® from MathWorks).
We tested the use of mSA-RWT or mSA-RF in cell imaging, in which biotinylated proteins on the cell surface were labeled with Alexa488 conjugated mSA-RWT or mSA-RF fused to EGFP, and imaged by fluorescence confocal microscopy. Cell imaging is an important test of whether engineered mutants can specifically interact with biotinylated ligands in a heterogeneous environment, in which other potentially competing interactions can interfere with desired detection. […]
To evaluate the stability of labeling, we imaged the labeled cells repeatedly over 1 hr and quantified the fluorescence intensity of Alexa488 or GFP at regular intervals. […]

The values below come from patent publication US10759835B2, “Monomeric streptavidin mutants, methods of using the same and processes of manufacturing proteins” (The Research Foundation for The State University of New York, priority 2016, dated 2020).

By Kd is commonly meant the free concentration of one partner at which half of the binding sites on the other are occupied at equilibrium, for simple one-to-one binding.

Several values for one entry are separate records, joined by “and”; a condition that tells them apart may be missing. Equal values may be shown once. Read-outs that look alike come from different tables or passages of the source.

B1: Brad2: bradavidin 2, streptavidin homolog, SEQ ID NO: 21 (protein, listed as Bradyrhizobium japonicum)
chain: QGLPAPSYWKNERGSELLIWSANSGTIQGTFTNHAQGFACQGIPYPAAGSVSPTGLYFVVTFAQCNSFTRWVGTIKGSQMPTSWTLFYVDNKGKPSRLKGGDIFTRVW
On to B1, for which the Kd in series [1] is under 0.1 nM.

B2: mSA-RF: monomeric streptavidin mutant SEQ ID NO: 3, S25R and T48F (protein)
chain: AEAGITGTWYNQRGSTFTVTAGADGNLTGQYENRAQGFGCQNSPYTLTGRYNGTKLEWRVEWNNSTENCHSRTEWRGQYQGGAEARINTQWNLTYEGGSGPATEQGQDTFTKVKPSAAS
modifications: Modified streptavidin
Consider B2, for which the “t1/2” value in series [2] (dissociation half-life t1/2=0.693/koff, biotin-fluorescein) was 6.7 h and 6.7 ± 0.3 h. For the same molecule, in series [2] (dissociation of biotin-fluorescein, excess free biotin 100 μM), the “Koff(×10^−3 min^−1)” value is reported as 1.73 ± 0.79 ×10^−3 min^−1. Besides, the Kd in series [3] came to 1.3 nM. In series [4] (after low pH treatment (100 mM glycine pH 2.3) and exchange back to PBS pH 7.5), this molecule registered a denaturation temperature of 60 °C. The thermal unfolding behaviour entry in series [4] (protein purified with biotin in the medium) was “clear two state unfolding transition”; in series [4] (protein purified without biotin in the medium), “does not show such transition”. In addition, the “Alexa488/GFP fluorescence of labeled cells over time” value in series [5] (after 1 hr, 900 μM biotin in the labeling solution) is on record as “remained high”. In series [5] (fixed HEK293 cells, 1 μM for 30 minutes), the “labeling of cells displaying biotinylated AP-CFP” value is “Only CFP positive cells were labeled selectively”.
